Reference: US20240279325A1 (Chugai, published 2024)
Changes are numbered by the printed parent chain.

What was measured:
mouse FcγRI = biological target: T1, mouse FcγRI (mouse, UniProt P26151 25-297); experiment: SPR (Biacore), method of Reference Example 2
T1 construct: extracellular domain; also called mFcγRI
T1 sequence (looked up): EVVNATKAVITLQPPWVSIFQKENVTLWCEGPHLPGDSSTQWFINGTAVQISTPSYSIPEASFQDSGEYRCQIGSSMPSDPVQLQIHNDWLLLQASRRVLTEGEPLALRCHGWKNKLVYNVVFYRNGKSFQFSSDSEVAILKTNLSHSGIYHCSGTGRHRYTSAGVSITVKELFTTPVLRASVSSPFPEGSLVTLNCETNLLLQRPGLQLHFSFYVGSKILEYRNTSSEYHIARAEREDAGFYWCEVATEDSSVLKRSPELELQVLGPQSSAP

mouse FcγRIV = biological target: T2, mouse FcγRIV (mouse, UniProt A0A0B4J1G0 21-203); experiment: SPR (Biacore), method of Reference Example 2
T2 construct: also called mFcγRIV; not shown: purification tag of the soluble receptor (probably a His tag)
T2 sequence: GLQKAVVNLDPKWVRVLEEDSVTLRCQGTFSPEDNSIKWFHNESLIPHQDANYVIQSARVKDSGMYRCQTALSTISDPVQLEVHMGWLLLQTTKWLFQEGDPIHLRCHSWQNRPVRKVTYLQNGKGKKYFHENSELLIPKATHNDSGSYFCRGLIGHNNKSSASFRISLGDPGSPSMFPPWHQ

[1] = biological target: T3, human FcγRIIa type R (allotype R131) extracellular domain with C-terminal His tag (human, UniProt P12318 34-217); experiment: SPR (Biacore), antibody captured, FcγR analyte
T3 construct: extracellular domain; also called FcγRIIaR; not shown: His tag at the C terminus
T3 sequence (looked up): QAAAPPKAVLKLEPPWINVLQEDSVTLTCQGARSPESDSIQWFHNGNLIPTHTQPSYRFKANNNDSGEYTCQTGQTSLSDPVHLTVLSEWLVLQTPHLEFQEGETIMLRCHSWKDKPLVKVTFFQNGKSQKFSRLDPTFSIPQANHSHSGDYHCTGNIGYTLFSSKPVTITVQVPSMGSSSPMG

[2] = biological target: T4, human FcγRIIa type H (allotype H131) extracellular domain with C-terminal His tag (human, UniProt P12318 34-217); experiment: SPR (Biacore), antibody captured, FcγR analyte
T4 construct: extracellular domain; also called FcγRIIaH; not shown: His tag at the C terminus
T4 sequence (looked up): T3 sequence (looked up) with R134H

[3] = biological target: T4, human FcγRIIa type H (allotype H131) …; experiment: SPR (Biacore), antibody captured, FcγR analyte; remark: listed apart in the source
[4] = biological target: T5, human FcγRIa extracellular domain with C-terminal His tag (human, UniProt P12314 16-292); experiment: SPR (Biacore), antibody captured, FcγR analyte
T5 construct: not shown: His tag at the C terminus
T5 sequence (P12314 16-292): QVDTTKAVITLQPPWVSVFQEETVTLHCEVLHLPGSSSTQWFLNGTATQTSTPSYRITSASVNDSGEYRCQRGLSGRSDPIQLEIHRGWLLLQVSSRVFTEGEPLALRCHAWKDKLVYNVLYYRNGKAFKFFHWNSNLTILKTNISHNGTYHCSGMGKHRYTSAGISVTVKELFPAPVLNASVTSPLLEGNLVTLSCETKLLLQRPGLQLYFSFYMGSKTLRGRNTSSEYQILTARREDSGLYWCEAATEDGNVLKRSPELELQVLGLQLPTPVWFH

[5] = biological target: T6, FcγRIIb extracellular domain with C-terminal His tag (human, UniProt P31994 43-217); experiment: SPR; KD of IL6R-B3/IL6R-L divided by KD of the variant
T6 construct: extracellular domain
T6 sequence (looked up): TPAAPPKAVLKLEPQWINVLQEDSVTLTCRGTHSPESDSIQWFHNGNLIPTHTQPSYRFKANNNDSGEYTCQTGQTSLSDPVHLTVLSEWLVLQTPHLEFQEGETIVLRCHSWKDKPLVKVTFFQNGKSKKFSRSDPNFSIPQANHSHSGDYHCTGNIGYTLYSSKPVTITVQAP

[6] = biological target: T7, FcγRIIa type R (allotype R131) extracellular domain with C-terminal His tag (human, UniProt P12318 34-217); experiment: as above
T7 construct: extracellular domain; also called FcγRIIaR; FcγRIIa R type
T7 sequence (looked up): T3 sequence (looked up)

[7] = biological target: T6, FcγRIIb extracellular domain with …; experiment: SPR; KD for FcγRIIaH divided by KD for FcγRIIb
[8] = biological target: T6, FcγRIIb extracellular domain with …; experiment: SPR; KD for FcγRIIaR divided by KD for FcγRIIb
[9] = biological target: T8, human FcγRIIa type H (allotype H131) extracellular domain with C-terminal His tag (human, UniProt P12318 34-217); experiment: SPR (Biacore), captured antibody, FcγR analyte
T8 construct: also called FcγRIIaH
T8 sequence: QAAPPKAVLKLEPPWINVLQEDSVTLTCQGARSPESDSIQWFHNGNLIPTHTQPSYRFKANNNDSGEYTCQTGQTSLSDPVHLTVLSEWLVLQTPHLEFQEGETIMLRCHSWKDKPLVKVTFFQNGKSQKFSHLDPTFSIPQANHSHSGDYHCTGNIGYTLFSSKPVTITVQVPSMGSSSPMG

B1: VH3/L(WT)-mIgG1-mF44 (antibody)
heavy: QVQLQESGPGLVKPSETLSLTCAVSGHSISHDHAWSWVRQPPGEGLEWIGFISYSGITNYNPSLQGRVTISRDNSKNTLYLQMNSLRAEDTAVYYCARSLARTTAMDYWGEGTLVTVSSAKTTPPSVYPLAPGSAAQTNSMVTLGCLVKGYFPEPVTVTWNSGSLSSGVHTFPAVLQSDLYTLSSSVTVPSSTWPSETVTCNVAHPASSTKVDKKIVPRDCGCKPCICTVPEVSSVFIFPPKPKDVLTITLTPKVTCVVVDISKDDPEVQFSWFVDDVEVHTAQTQPREEQFNSTFRSVSELPIMHQDWLNGKEFKCRVNSADFPAPIEKTISKTKGRPKAPQVYTIPPPKEQMAKDKVSLTCMITDFFPEDITVEWQWNGQPAENYKNTQPIMDTDGSYFVYSKLNVQKSNWEAGNTFTCSVLHEGLHNHHTEKSLSHSPGK
light: not shown
notes: copies: 2 + 2
B1: no binding (mouse FcγRI); no binding (mouse FcγRIV).

B2: VH3/L(WT)-mIgG1 (antibody)
heavy: B1 heavy with D323A
light: not shown
notes: mouse IgG1 constant region; copies: 2 + 2
B2: no binding (mouse FcγRI); no binding (mouse FcγRIV).

B3: IL6R-BP183/IL6R-L (antibody, human IgG1, kappa, name in EU numbering)
heavy: QVQLQESGPGLVKPSETLSLTCAVSGHSISHDHAWSWVRQPPGEGLEWIGFISYSGITNYNPSLQGRVTISRDNSKNTLYLQMNSLRAEDTAVYYCARSLARTTAMDYWGEGTLVTVSSASTKGPSVFPLAPSSKSTSGGTAALGCLVKDYFPEPVTVSWNSGALTSGVHTFPAVLQSSGLYSLSSVVTVPSSSLGTQTYICNVNHKPSNTKVDKKVEPKSCDKTHTCPPCPAPDYLGGDSVFLFPPKPKDTLMISRTPEVTCVVVDVSHEDGEVKFNWYVDGVEVHNAKTKPREEQYNSTYRVVSVLTVLHQDWLNGKEYKCKVSNAALPKPIEKTISKAKGQPREPQVYTLPPSRDELTKNQVSLTCLVKGFYPSDIAVEWESNGQPENNYKTTPPVLDSDGSFFLYSKLTVDKSRWQQGNVFSCSVMHEALHNHYTQESLSLSP
light: not shown
notes: EU numbering; copies: 2 + 2
For B3, the Kd [1] was 1.6 µM.

B4: IL6R-BP208/IL6R-L (antibody, human IgG1, kappa, name in EU numbering)
heavy: B3 heavy with Y236L, G239D, H270D, A328K, K332R
light: not shown
notes: EU numbering; copies: 2 + 2
In the case of B4, the Kd [2] is reported as 83 µM.

B5: IL6R-BP234/IL6R-L (antibody, human IgG1, kappa, name in EU numbering)
heavy: B3 heavy with G239D, S269Q, H270D, Y298D, A328D
light: not shown
notes: EU numbering; copies: 2 + 2
Work on B5 yielded a Kd [3] of 20 µM.

B6: IL6R-BP185/IL6R-L (antibody, human IgG1, kappa, name in EU numbering)
heavy: B3 heavy with G239D
light: not shown
notes: EU numbering; copies: 2 + 2
B6 showed a Kd [4] of 0.053 µM.

B7: IL6R-BP511/IL6R-L (antibody, human IgG1, kappa, name in EU numbering)
heavy: B3 heavy with D235E, Y236L, G239D, V266I, S269A, H270E, E274P, Y298D, A328K, K332R
light: not shown
notes: copies: 2 + 2
For B7, the “KD(IIb) OF PARENT POLYPEPTIDE/KD(IIb) OF ALTERED POLYPEPTIDE” value [5] was 891, the “KD(IIaR) OF PARENT POLYPEPTIDE/KD(IIaR) OF ALTERED POLYPEPTIDE” value [6] was 6.3 and the “KD(IIaH)/KD(IIb)” value [7] was 1240. For the same binder, the “KD(IIaR)/KD(IIb)” value [8] was 50.6.

B8: IL6R-BP241/IL6R-L (antibody, human IgG1, kappa, name in EU numbering)
heavy: B3 heavy with Y236L, G239D, H270D, A328D, K332R
light: not shown
notes: EU numbering; copies: 2 + 2
With B8 the Kd [3] was 9 µM.

B9: IL6R-BP201/IL6R-L (antibody, human IgG1, kappa, name in EU numbering)
heavy: B3 heavy with Y236L, G239D, A328K, K332R
light: not shown
notes: EU numbering; copies: 2 + 2
B9 gave a Kd [2] of 69 µM.

B10: IL6R-BP192/IL6R-L (antibody, human IgG1, kappa, name in EU numbering)
heavy: B3 heavy with Y236L, H270D, Y298D, A328K
light: not shown
notes: EU numbering; copies: 2 + 2
With B10 the Kd [4] was 0.0056 µM.

B11: IL6R-BP194/IL6R-L (antibody, human IgG1, kappa, name in EU numbering)
heavy: B3 heavy with G239D, H270D
light: not shown
notes: EU numbering; copies: 2 + 2
For B11, the Kd [2] was 85 µM.

B12: IL6R-BP447/IL6R-L (antibody, human IgG1, kappa, name in EU numbering)
heavy: B3 heavy with Y236L, G239D, S269A, H270E, A328K, K332R, P398A
light: not shown
notes: copies: 2 + 2
In the case of B12, the Kd [9] is reported as 2 µM.

B13: IL6R-BP200/IL6R-L (antibody, human IgG1, kappa, name in EU numbering)
heavy: B3 heavy with G239D, A328D, K332R
light: not shown
notes: EU numbering; copies: 2 + 2
Work on B13 yielded a Kd [2] of 42 µM and a Kd [1] of 0.68 µM.

B14: IL6R-BP190/IL6R-L (antibody, human IgG1, kappa, name in EU numbering)
heavy: B3 heavy with D235E, Y236L, G239D, H270D, A328K
light: not shown
notes: EU numbering; copies: 2 + 2
In the case of B14, the Kd [4] is reported as 0.053 µM.
